Experimental data from US20200339648A1 (University of Washington, published 2020).

T1: mouse IL-2Rβγc on murine cells (CTLL-2 T cells, primary CD4+ T cells) (mouse, UniProt P16297 27-539; P34902 23-369)
T1 sequence (looked up) 1: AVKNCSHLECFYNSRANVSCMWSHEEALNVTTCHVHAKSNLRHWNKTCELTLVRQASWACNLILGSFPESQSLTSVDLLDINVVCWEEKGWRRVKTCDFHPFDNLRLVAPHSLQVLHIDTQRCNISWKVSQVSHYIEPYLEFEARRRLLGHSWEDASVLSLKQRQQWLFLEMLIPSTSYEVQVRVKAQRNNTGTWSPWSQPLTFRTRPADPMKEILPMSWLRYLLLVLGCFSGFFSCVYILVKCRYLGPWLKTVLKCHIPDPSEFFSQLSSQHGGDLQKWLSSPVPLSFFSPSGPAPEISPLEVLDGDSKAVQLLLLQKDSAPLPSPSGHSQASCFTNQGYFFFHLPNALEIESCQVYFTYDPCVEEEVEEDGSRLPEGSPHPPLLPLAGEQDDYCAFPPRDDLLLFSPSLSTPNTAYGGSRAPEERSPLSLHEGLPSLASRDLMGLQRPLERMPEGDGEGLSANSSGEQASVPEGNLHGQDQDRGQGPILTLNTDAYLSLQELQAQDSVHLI
T1 sequence (looked up) 2: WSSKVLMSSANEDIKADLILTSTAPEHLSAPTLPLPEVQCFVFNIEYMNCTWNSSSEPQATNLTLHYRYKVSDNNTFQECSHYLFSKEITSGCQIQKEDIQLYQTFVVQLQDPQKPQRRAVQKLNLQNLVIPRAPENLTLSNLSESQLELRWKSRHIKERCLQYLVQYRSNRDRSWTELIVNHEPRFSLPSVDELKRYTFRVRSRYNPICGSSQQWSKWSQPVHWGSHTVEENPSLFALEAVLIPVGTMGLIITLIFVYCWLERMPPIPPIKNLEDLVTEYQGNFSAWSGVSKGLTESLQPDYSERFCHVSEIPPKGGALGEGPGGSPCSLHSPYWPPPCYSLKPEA

T2: mouse IL-2 receptor βγc heterodimer (mIL-2Rβγc), soluble (mouse, UniProt P16297 27-240; P34902 23-263, biotin on the C-terminal biotin acceptor peptide)
T2 construct: extracellular domain; also called MmIL-2Rβγc; mIL-2Rβνc
T2 sequence 1: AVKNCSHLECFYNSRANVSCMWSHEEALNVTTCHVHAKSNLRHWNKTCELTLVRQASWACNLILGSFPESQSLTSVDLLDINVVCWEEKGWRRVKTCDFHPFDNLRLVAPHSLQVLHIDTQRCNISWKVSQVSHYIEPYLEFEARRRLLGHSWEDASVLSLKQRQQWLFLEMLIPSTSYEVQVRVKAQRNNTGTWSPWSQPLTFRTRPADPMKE
T2 sequence 2: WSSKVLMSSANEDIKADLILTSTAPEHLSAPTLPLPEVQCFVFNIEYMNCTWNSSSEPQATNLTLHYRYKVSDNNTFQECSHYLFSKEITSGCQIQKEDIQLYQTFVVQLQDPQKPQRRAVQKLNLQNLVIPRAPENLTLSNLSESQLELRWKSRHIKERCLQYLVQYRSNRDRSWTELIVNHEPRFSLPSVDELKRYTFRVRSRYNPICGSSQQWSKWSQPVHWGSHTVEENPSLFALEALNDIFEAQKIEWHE

T3: mouse IL-2 receptor β subunit (mIL-2Rβ) (mouse, UniProt P16297 27-240, biotin on the C-terminal biotin acceptor peptide)
T3 construct: extracellular domain; Biotinylated form for SPR; also called MmIL-2Rβ; murine IL-2Rβ
T3 sequence: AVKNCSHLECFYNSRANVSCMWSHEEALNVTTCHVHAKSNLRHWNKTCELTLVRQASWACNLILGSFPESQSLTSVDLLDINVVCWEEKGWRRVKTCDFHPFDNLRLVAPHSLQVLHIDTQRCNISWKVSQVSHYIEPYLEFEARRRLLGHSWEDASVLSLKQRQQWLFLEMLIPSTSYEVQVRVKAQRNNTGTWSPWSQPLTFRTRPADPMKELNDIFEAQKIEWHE


What was measured:
[1] = target: T1, mouse IL-2Rβγc on murine cells (CTLL-2 …); assay: cell-based or functional assay
[2] = target: T2, mouse IL-2 receptor βγc heterodimer …; assay: SPR, equilibrium titration; IL-2Rγ on streptavidin chip, saturating IL-2Rβ in solution
Description: (§1) Less than 100 response units (RU) of each ligand was immobilized to minimize mass transfer effects. […] Surface regeneration for all interactions was conducted using 15 s exposure to 1 M MgCl2 in 10 mM sodium acetate pH 5.5. SPR experiments were carried out in HBS-P+ buffer (GE Healthcare) supplemented with 0.2% bovine serum albumin (BSA) at 25° C. and all binding studies were performed at a flow rate of […] to prevent analyte rebinding. Data was visualized and processed using the Biacore T100 evaluation software version 2.0 (GE Healthcare). Equilibrium titration curve fitting and equilibrium binding dissociation (KD) value determination was implemented using GraphPad Prism assuming all binding interactions to be first order. Biolayer interferometry: binding data were collected in a Octet RED96 (ForteBio, Menlo Park, Calif.) and processed using the instrument's integrated software using a 1:1 binding model. […] Analyte proteins were diluted from concentrated stocks into binding buffer. After baseline measurement in binding buffer alone, the binding kinetics were monitored by dipping the biosensors in wells containing 100 nM of the designed protein (association) and then dipping the sensors back into baseline wells (dissociation).

[3] = target: T3, mouse IL-2 receptor β subunit (mIL-2Rβ); assay: SPR, equilibrium titration; biotinylated IL-2Rβ on streptavidin chip
Description: as §1

EC50 (CD25+) pSTAT5, murine T (CTLL-2, CD25+) cells [1] [nM]	Kd [2] [nM]	Kd [3] [µM]	binding result [3]	Binder
7.61	925			G2_neo2_40_1F_dsn30 (designed binder, E. coli, N-terminal 6xHis tag and thrombin site) PEKKRQLLLEHILLDALMLLNLLETNPQNTESKFEDYISNAEVIAEELAKLMESLGLSDEAEKFKKIKQWLREVWRIWSSTNWSTLEDKARELLNRIITTIQSQIFY
1.95	80			G2_neo2_40_1F_seq04 (designed binder) TTKKIQLLVEHALLDALMILNLSSESNEKLNRIITTLQSWIFRGEIDPDRARELAKLLEEIREEMRKRGIDTEDYVSNMIVIIRELA
0.5	69.2			G2_neo2_40_1F_dsn40 (designed binder, E. coli, N-terminal 6xHis tag and thrombin site) PEKKRQLLAEHALLDALMILNIIRTNSDNTESKLEDYISNLKVILEEIARLMESLGLSDEAEKAKEAMRLADKAGSTASEEEKKEAMNRVITWAQSWIFN
2.2	71.5			G2_neo2_40_1F_seq16 (designed binder) TKKKIQLLVEHALLDALMILNLSSKSNEKLNRIITTMQSWIFNGTIDPDRARELAKLVEEIRDEMEKNGIDTEDYVSNLKVILEELA
0.48	38.2			G2_neo2_40_1F_dsn29 (designed binder, E. coli, N-terminal 6xHis tag and thrombin site) EDYYSNLKVILEELAREMERNGLSDKAEEWRQWKKIVERIRQIRSNNSDLNEAKELLNRLITYIQSQIFEISERIRETDQEKKEESWKKWQLLLEHALLDVLMLLND
1.74	39.1			G2_neo2_40_1F_seq12 (designed binder) TEKKLQLLVEHALLDALMILNLWSESNEKLNRIITTMQSWIFTGRIDPDKAEELAKLVEELREEARERGIDTEDYVSNLKVILKELS
0.08	64.8	0.402		G1_neo2_40_1F_M3 (designed binder) STEKTQHAAEDALRDALMLRNLLNEPNEKLARIITTMQSWQFTEKIDGDGAQELAKEVEELQQEHEVRGIDVEDYASNLKVILLQLA
0.007	4.3	0.214		G1_neo2_40_1F_M1 (designed binder) STEKTQLAAEHALRDALMLKHLLNEPNEKLARIITTMQSWQFTGKIDGDGAQELAKEVEELQQEHEVRGIDVEDYASNLKVILLHLA
3.11	886	2.6		G1_neo2_40_1F_M2 (designed binder) STKNTQLAAEDALLDALMLRNLLNEPNEKLARIITTMQSWQFTEKIDGDGAQELAKEVEELQQEHEERGIDVEDYASNLKVILLQLA
1.06	27.8			G2_neo2_40_1F_seq26 (designed binder) TKKKYQLLIEHALLDALMILNLWSESNEKLNRIITTMQSWIFTGTYDPDKAEELEKLAKEIEDEARERGIDTEDYMSNLRVILKELS
0.24	13.6			G2_neo2_40_1F_seq27 (designed binder) TKKKAQLLAEHALLDALMLLNLSSESNERLNRIITWLQSIIFTGTYDPDMVKEAVKLADEIEDEMRKRGIDTEDYVSNLRVILQELA
37.4	2650	6.8		G1_neo2_40_1F_H1 (designed binder) STKKTQLLIEHALLDALDMSRNLPEPNEKLSRIITTMQSWIFTGKIDGDGAQQLAKEVEELEQEHEKRGEDVEDEASNLKVILLELA
84.7	5120	45.3		G1_neo2_40_1F_H5 (designed binder) STKKTQLLIEHALLDALHMSRKLPEPNEKLSRIITTMQSWIFTGKIDGDGAQHLAKEVEELEQEHEKRGGEVEDEASNLKVILLELA
0.93	392	10.1		G1_neo2_40_1F_H4 (designed binder) STKKTQLLLEHALLDALHMSRELPEPNEKLNRIITDMQSWIFTGKIDGDGAQDLAKEVEELEQEHEKRGGDVEDYASNLKVILLELA
9.38	964	68.3		G1_neo2_40_1F_H2 (designed binder) STKKTQLLLEHALLDALHMRRNLPEPNEKLSRIITTMQSWIFTGKIDGDGAQELAKEVEELEQEHEKRGRDVEDDASNLKVILLELA
35.2	3830		no binding	G1_neo2_40_1F_H3 (designed binder) STKKTQLLIEHALLDALNMRKKLPEPNEKLSRIITDMQSWIFTGKIDGDGAQQLAKEVEELEQEHEKRGGDVEDYASNLKVILLELA
